Source: article PMC11706664, “Structure of WzxE the lipid III flippase for Enterobacterial Common Antigen polysaccharide” (Open Biology, 2025)
Each block holds one binder with its values, some of them ahead of it.

Tests used:
[1] = biological target: T1, WzxE, the lipid III flippase from Escherichia coli (E. coli K-12 MG1655, UniProt P0AAA7, V inserted between M1 and S2 (worked out from the letters of primer WzxE-F, …)); assay: SEC; WzxE incubated with nanobody at molar ratio 1:1.2 WzxE:Nb for 2 h at 4°C; co-elution on size exclusion chromatography in buffer B (25 mM Tris pH 7.5, 150 mM NaCl, 5% glycerol, OGNG, DDM); details: both partners purified
T1 construct: His10 removed with TEV protease; Residues of the XhoI site and of the TEV site probably stay at the C-terminus after cleavage (surmise); The same construct purified in DDM only was used in the ELISA; also called chain A; source: E. coli C43(DE3), purified from membranes (DM extraction with DDM/OGNG purification, or DDM only; nickel NTA, TEV cleavage, reverse IMAC, SEC); not shown: His10, …

[2] = biological target: T1, WzxE, the lipid III flippase from …; assay: ELISA; biotinylated Nb10-strep II (1.62 µM/well) bound on Streptactin-coated plates; WzxE purified in DDM added at 2.78 µM for 1 h; room temperature, 25 mM Tris pH 7.5, 150 mM NaCl, 0.02% DDM, 0.1% BSA, 0.05% Tween-20; details: both partners purified
[3] = biological target: T1, WzxE, the lipid III flippase from …; assay: crystal structure; WzxE-Nb10-Nb7 complex (Nb7 added to pre-formed WzxE-Nb10), with und-PP-GlcNAc or nerol-PP-GlcNAc added, lipidic cubic phase, 20°C; outward-facing conformation (PDB 9G9M, 9G9O); details: both partners purified
[4] = biological target: T2, WzxE-Nb10 complex (WzxE held on immobilised biotinylated Nb10-strep II) (Escherichia coli K-12 MG1655 (WzxE), V inserted between M1 and S2 (worked out from the letters of primer WzxE-F, …, biotin (EZ-link Sulfo-NHS-LC Biotin kit))); assay: ELISA; nanobodies screened on the WzxE-Nb10 complex held on Streptactin-coated plates by biotinylated Nb10-strep II; anti-His HRP antibody, read at 410 nm; room temperature; the step of adding the nanobodies is not described
T2 construct: WzxE, E. coli K-12 MG1655, as the chain of m1 (purified in DDM); as the chain of m4 (Nb10 with strep II tag); A complex of a natural membrane protein and a nanobody, so that no single origin fits; not shown: His10, C-terminal, cleaved; strep II, C-terminal, kept
T2 chain: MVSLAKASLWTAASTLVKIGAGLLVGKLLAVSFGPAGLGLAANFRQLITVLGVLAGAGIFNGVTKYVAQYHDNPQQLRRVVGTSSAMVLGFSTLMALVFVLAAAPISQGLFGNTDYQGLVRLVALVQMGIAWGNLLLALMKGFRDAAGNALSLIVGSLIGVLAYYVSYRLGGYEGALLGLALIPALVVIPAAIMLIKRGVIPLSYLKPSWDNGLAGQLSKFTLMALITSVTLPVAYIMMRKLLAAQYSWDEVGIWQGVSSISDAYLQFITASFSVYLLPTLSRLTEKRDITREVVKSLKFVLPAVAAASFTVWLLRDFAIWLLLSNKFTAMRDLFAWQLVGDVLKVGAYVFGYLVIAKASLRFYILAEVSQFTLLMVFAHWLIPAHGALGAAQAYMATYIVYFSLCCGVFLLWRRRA

- binding result [1]: binds
B1: nanobody Nb10 (CA12485) (VHH)
VHH: QVQLVESGGGLVQAGGSLGLSCAASGRTFSNYVMAWFRQAPGKEREFVARISESRGTTDYADSVKGRFTISRDNAKNTIYLQMNSLNPGDTAVYSCAATLPAWTGIIGGRRPGNYPYWGQGTQVTVSS
notes: Raised by llama immunization with WzxE (Nanobody4Instruct), in plasmid pMESy4; also called chain B; source: E. coli WK6 (su-), purified (His-Trap, SEC)

- binding result [2]: binds
B2: biotinylated Nb10-Strep II tagged protein (VHH)
VHH: B1 VHH
notes: as the chain of m2 (Nb10), with the C-terminal hexa-histidine tag exchanged for a strep II tag; source: E. coli WK6 (su-), purified (Strep-tactin beads, SEC), biotinylated; not shown: strep II, C-terminal, kept

- binding result [3]: binds
- binding result [4]: binds
B3: nanobody Nb7 (CA12482) (VHH)
VHH: QVQLVESGGGLVQAGDSLTLSCAASGRTAYRYGMGWFRQHPGKEREFVASIWWTGTTTYYADSVKGRFTISRDDVKNMVYLQMNSLKPEDTAVYYCAAKFYGGNSKRPGDYAYWGQGTQVTVSS
notes: Raised by llama immunization with WzxE (Nanobody4Instruct), in plasmid pMESy4; In the ELISA it was probably detected by the anti-His HRP antibody (surmise; the methods leave out the step); also called chain C; source: E. coli WK6 (su-), purified (His-Trap, SEC)
